This passage reports binding result and Kd results from paper PMC11861601, “Multitarget mechanism of MYC inhibition by the bacterial lon protease in disease” (Scientific Reports, 2025).

B1: His-tagged full-length N-MYC (natural protein, human, UniProt P04198 1-464, looked up)
chain: MPSCSTSTMPGMICKNPDLEFDSLQPCFYPDEDDFYFGGPDSTPPGEDIWKKFELLPTPPLSPSRGFAEHSSEPPSWVTEMLLENELWGSPAEEDAFGLGGLGGLTPNPVILQDCMWSGFSAREKLERAVSEKLQHGRGPPTAGSTAQSPGAGAASPAGRGHGGAAGAGRAGAALPAELAHPAAECVDPAVVFPFPVNKREPAPVPAAPASAPAAGPAVASGAGIAAPAGAPGVAPPRPGGRQTSGGDHKALSTSGEDTLSDSDDEDDEEEDEEEEIDVVTVEKRRSSSNTKAVTTFTITVRPKNAALGPGRAQSSELILKRCLPIHQQHNYAAPSPYVESEDAPPQKKIKSEASPRPLKSVIPPKAKSLSPRNSDSEDSERRRNHNILERQRRNDLRSSFLTLRDHVPELVKNEKAAKVVILKKATEYVHSLQAEEHQLLLEKEKLQARQQQLLKKIEHARTC
notes: N-MYC, human, full length; source: bought: Signalway (SAB Signalway Antibody), Cat# AP72694
B2: Lon N-terminal domain peptide (aa 1-245) (domain or fragment, E. coli, UniProt P0A9M0 1-245, looked up)
chain: MNPERSERIEIPVLPLRDVVVYPHMVIPLFVGREKSIRCLEAAMDHDKKIMLVAQKEASTDEPGVNDLFTVGTVASILQMLKLPDGTVKVLVEGLQRARISALSDNGEHFSAKAEYLESPTIDEREQEVLVRTAISQFEGYIKLNKKIPPEVLTSLNSIDDPARLADTIAAHMPLKLADKQSVLEMSDVNERLEYLMAMMESEIDLLQVEKRIRNRVKKQMEKSQREYYLNEQMKAIQKELGEMD
notes: Lon protease, E. coli, UniProt P0A9M0, N-terminal domain, aa 1-245; also called NTD; NTD peptide; source: E. coli BL21 (DE3), purified (Strep-Tactin Sepharose)

Where only a bound is given, the exact number is not on record here.

What all share (assay): SPR; Biacore X100; His-tagged ligand (~0.2 µM) captured on Ni-charged Sensor Chip NTA; Lon protein or domain injected at five dilutions; 25 °C, 30 µL/min; running buffer as printed 0.1 M HEPES, 1.5 M NaCl, 0.03 M EDTA, 0.5% v/v Surfactant P20; reference cell without nickel; 1:1 Langmuir fit
Holding throughout (conditions): both partners purified
On the technique in general: Surface plasmon resonance follows binding to a sensor surface in real time, without labels.

In experiment [1] the target is T1, recombinant Escherichia coli Lon protease (aa 1-778) (E. coli, UniProt P0A9M0 1-778).
T1 construct: Lon protease, E. coli, UniProt P0A9M0, aa 1-778 as printed; Gene synthesised (GenScript) and cloned in a pASK-63 A+ vector (IBA); also called rLon; full-length Lon; source: E. coli BL21 (DE3), purified (Strep-Tactin Sepharose)

Experiment [2] deals with T2, His-tagged full-length c-MYC (human, UniProt P01106-1 1-439).
T2 construct: c-MYC, human, full length; see the vendor's catalogue entry; source: bought: Cusabio, CSB-EP015270HU

The target in experiment [3] is B1.

T2 sequence (P01106 16-454): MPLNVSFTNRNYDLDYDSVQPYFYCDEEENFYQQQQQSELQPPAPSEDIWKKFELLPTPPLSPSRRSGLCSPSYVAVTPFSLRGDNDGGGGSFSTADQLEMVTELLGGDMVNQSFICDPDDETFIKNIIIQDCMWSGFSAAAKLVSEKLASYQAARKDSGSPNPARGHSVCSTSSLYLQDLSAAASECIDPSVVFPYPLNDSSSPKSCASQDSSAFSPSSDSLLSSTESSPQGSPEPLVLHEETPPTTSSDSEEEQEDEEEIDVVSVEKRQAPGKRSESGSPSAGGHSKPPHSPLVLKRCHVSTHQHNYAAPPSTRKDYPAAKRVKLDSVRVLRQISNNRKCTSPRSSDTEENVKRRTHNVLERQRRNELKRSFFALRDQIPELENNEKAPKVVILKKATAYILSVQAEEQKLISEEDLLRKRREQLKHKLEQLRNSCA

For the molecule B1, in experiment [1], the binding result was “binds”.

Regarding B2, the equilibrium dissociation constant (Kd) in experiment [2] and in experiment [3] was under 1000 nM each time.
